Molecular target: mutant pro-urokinase (human) (UniProt P00749)
Assay: cell-based or functional assay

| activated MMP (ΔA/h^2*1000); time 0 h, 0.15 µM modified pro-urokinase | activated MMP (ΔA/h^2*1000); time 1 h | activated MMP (ΔA/h^2*1000); time 2 h | activated MMP (ΔA/h^2*1000); time 3 h | activated MMP (ΔA/h^2*1000); time 4 h | activated MMP (ΔA/h^2*1000); time 6.5 h | activated MMP (ΔA/h^2*1000); time 24 h | activated MMP (ΔA/h^2*1000); time 31 h | activated MMP (ΔA/h^2*1000); time 48 h | activated MMP (ΔA/h^2*1000); time 48 h + EDTA | not activated MMP (ΔA/h^2*1000); time 0 h, 0.15 µM modified pro-urokinase | not activated MMP (ΔA/h^2*1000); time 1 h | not activated MMP (ΔA/h^2*1000); time 2 h | not activated MMP (ΔA/h^2*1000); time 3 h | not activated MMP (ΔA/h^2*1000); time 4 h | not activated MMP (ΔA/h^2*1000); time 6.5 h | not activated MMP (ΔA/h^2*1000); time 24 h | not activated MMP (ΔA/h^2*1000); time 31 h | not activated MMP (ΔA/h^2*1000); time 48 h | not activated MMP (ΔA/h^2*1000); time 48 h + EDTA | Substance |
| --- | --- | --- | --- | --- | --- | --- | --- | --- | --- | --- | --- | --- | --- | --- | --- | --- | --- | --- | --- | --- |
| < 0.05 ΔA/h^2·1000 | 0.3 ΔA/h^2·1000 | < 0.05 ΔA/h^2·1000 | < 0.05 ΔA/h^2·1000 | 1.1 ΔA/h^2·1000 | 1.3 ΔA/h^2·1000 | 3.6 ΔA/h^2·1000 | 35.9 ΔA/h^2·1000 | 48.9 ΔA/h^2·1000 | < 0.05 ΔA/h^2·1000 |  |  |  |  |  |  |  |  |  |  | mixture of human MMP2 and MMP9, activated with APMA |
|  |  |  |  |  |  |  |  |  |  | < 0.05 ΔA/h^2·1000 | < 0.05 ΔA/h^2·1000 | < 0.05 ΔA/h^2·1000 | < 0.05 ΔA/h^2·1000 | < 0.05 ΔA/h^2·1000 | < 0.05 ΔA/h^2·1000 | 1 ΔA/h^2·1000 | 2.1 ΔA/h^2·1000 | 14 ΔA/h^2·1000 | < 0.05 ΔA/h^2·1000 | mixture of human MMP2 and MMP9, not activated |
